US20060135432A1 (NEUROGENEX, published 2006)
[ ]: non-standard residue; d: D form. dPhe(4-Cl) = N[C@H](Cc1ccc(Cl)cc1)C(=O)O; d2Nal = N[C@H](Cc1ccc2ccccc2c1)C(=O)O; dCit = NC(=O)NCCC[C@@H](N)C(=O)O; d3Pal = N[C@H](Cc1cccnc1)C(=O)O; pGlu = O=C1CC[C@@H](C(=O)O)N1

B1: [D-Ala^6]GnRH-2 (peptide)
peptide: [pGlu]HWSH[dA]WYPG-NH2
SMILES: C[C@@H](NC(=O)[C@H](Cc1c[nH]cn1)NC(=O)[C@H](CO)NC(=O)[C@H](Cc1c[nH]c2ccccc12)NC(=O)[C@H](Cc1c[nH]cn1)NC(=O)[C@@H]1CCC(=O)N1)C(=O)N[C@@H](Cc1c[nH]c2ccccc12)C(=O)N[C@@H](Cc1ccc(O)cc1)C(=O)N1CCC[C@H]1C(=O)NCC(N)=O
notes: Chemically synthesised by AnyGen Co
B2: GnRH-1 (peptide)
peptide: EHWSYGLRPG
modifications: pyroGlu at 1; C-terminal amide (GlyNH2); radiolabelled with I^125 where used as tracer in Example 4
notes: also called mGnRH; mammalian GnRH
B3: GnRH-2 (peptide)
peptide: [pGlu]HWSHGWYPG-NH2
modifications: also: I-125 radiolabelled form used as tracer
notes: Purchased from Sigma Co; also called gonadotropin-releasing hormone-2; cGnRH-II
B4: [D-Trp^6]GnRH-2 (peptide)
peptide: [pGlu]HWSH[dW]WYPG-NH2
SMILES: NC(=O)CNC(=O)[C@@H]1CCCN1C(=O)[C@H](Cc1ccc(O)cc1)NC(=O)[C@H](Cc1c[nH]c2ccccc12)NC(=O)[C@@H](Cc1c[nH]c2ccccc12)NC(=O)[C@H](Cc1c[nH]cn1)NC(=O)[C@H](CO)NC(=O)[C@H](Cc1c[nH]c2ccccc12)NC(=O)[C@H](Cc1c[nH]cn1)NC(=O)[C@@H]1CCC(=O)N1
B5: [D-Ala^6, Leu^7]GnRH-2 (peptide)
peptide: [pGlu]HWSH[dA]LYPG-NH2
SMILES: CC(C)C[C@H](NC(=O)[C@@H](C)NC(=O)[C@H](Cc1c[nH]cn1)NC(=O)[C@H](CO)NC(=O)[C@H](Cc1c[nH]c2ccccc12)NC(=O)[C@H](Cc1c[nH]cn1)NC(=O)[C@@H]1CCC(=O)N1)C(=O)N[C@@H](Cc1ccc(O)cc1)C(=O)N1CCC[C@H]1C(=O)NCC(N)=O
B6: [Leu^5, D-Ala^6]GnRH-2 (peptide)
peptide: [pGlu]HWSL[dA]WYPG-NH2
SMILES: CC(C)C[C@H](NC(=O)[C@H](CO)NC(=O)[C@H](Cc1c[nH]c2ccccc12)NC(=O)[C@H](Cc1c[nH]cn1)NC(=O)[C@@H]1CCC(=O)N1)C(=O)N[C@H](C)C(=O)N[C@@H](Cc1c[nH]c2ccccc12)C(=O)N[C@@H](Cc1ccc(O)cc1)C(=O)N1CCC[C@H]1C(=O)NCC(N)=O
B7: [D-Ala^6, Tyr^7, Trp^8]GnRH-2 (peptide)
peptide: [pGlu]HWSH[dA]YWPG-NH2
SMILES: C[C@@H](NC(=O)[C@H](Cc1c[nH]cn1)NC(=O)[C@H](CO)NC(=O)[C@H](Cc1c[nH]c2ccccc12)NC(=O)[C@H](Cc1c[nH]cn1)NC(=O)[C@@H]1CCC(=O)N1)C(=O)N[C@@H](Cc1ccc(O)cc1)C(=O)N[C@@H](Cc1c[nH]c2ccccc12)C(=O)N1CCC[C@H]1C(=O)NCC(N)=O
B8: [D-Lys^6]GnRH-2 (peptide)
peptide: [pGlu]HWSH[dK]WYPG-NH2
SMILES: NCCCC[C@@H](NC(=O)[C@H](Cc1c[nH]cn1)NC(=O)[C@H](CO)NC(=O)[C@H](Cc1c[nH]c2ccccc12)NC(=O)[C@H](Cc1c[nH]cn1)NC(=O)[C@@H]1CCC(=O)N1)C(=O)N[C@@H](Cc1c[nH]c2ccccc12)C(=O)N[C@@H](Cc1ccc(O)cc1)C(=O)N1CCC[C@H]1C(=O)NCC(N)=O
B9: [Tyr^5, D-Ala^6, Leu^8]GnRH-2 (peptide)
peptide: [pGlu]HWSY[dA]WLPG-NH2
SMILES: CC(C)C[C@H](NC(=O)[C@H](Cc1c[nH]c2ccccc12)NC(=O)[C@@H](C)NC(=O)[C@H](Cc1ccc(O)cc1)NC(=O)[C@H](CO)NC(=O)[C@H](Cc1c[nH]c2ccccc12)NC(=O)[C@H](Cc1c[nH]cn1)NC(=O)[C@@H]1CCC(=O)N1)C(=O)N1CCC[C@H]1C(=O)NCC(N)=O
B10: Trptorelix-2 (peptide)
peptide: Ac-[d2Nal][dPhe(4-Cl)][d3Pal]SH[dCit]WYP[dA]-NH2
SMILES: CC(=O)N[C@H](Cc1ccc2ccccc2c1)C(=O)N[C@H](Cc1ccc(Cl)cc1)C(=O)N[C@H](Cc1cccnc1)C(=O)N[C@@H](CO)C(=O)N[C@@H](Cc1c[nH]cn1)C(=O)N[C@H](CCCNC(N)=O)C(=O)N[C@@H](Cc1c[nH]c2ccccc12)C(=O)N[C@@H](Cc1ccc(O)cc1)C(=O)N1CCC[C@H]1C(=O)N[C@H](C)C(N)=O

What follows are binders tested against bfGnRHR-1 (bullfrog) (assay: cell-based or functional assay).

Binder	inositol phosphate production, concentration needed compared with GnRH-2
B1	~8 fold lower concentration than GnRH-2

These binders were tested against bfGnRHR-2 (bullfrog) (assay: cell-based or functional assay).

Binder	inhibition of GnRH-2-induced IP production, sensitivity compared with Cetrorelix	inositol phosphate production, concentration needed compared with GnRH-2
Ac-[d2Nal][dPhe(4-Cl)][d3Pal]SY[dCit]WYP[dA]-NH2 [Trptorelix-1]	100 fold more sensitive than Cetrorelix	
B2		~1000 fold higher concentration than GnRH-2

What follows are binders tested against T1, rat GnRHR (rat, UniProt P30969 1-327) (assay: cell-based or functional assay).
T1 sequence (looked up): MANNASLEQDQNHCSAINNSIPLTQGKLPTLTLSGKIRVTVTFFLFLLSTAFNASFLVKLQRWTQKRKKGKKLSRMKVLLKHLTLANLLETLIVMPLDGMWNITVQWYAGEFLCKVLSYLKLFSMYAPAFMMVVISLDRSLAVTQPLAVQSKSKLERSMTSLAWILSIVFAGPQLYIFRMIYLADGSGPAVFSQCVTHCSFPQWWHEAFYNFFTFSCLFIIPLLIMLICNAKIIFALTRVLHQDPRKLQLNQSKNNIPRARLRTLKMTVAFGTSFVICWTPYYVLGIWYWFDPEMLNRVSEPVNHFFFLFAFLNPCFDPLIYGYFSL

Binder	inositol phosphate production, sensitivity compared with GnRH-1
B3	10 fold lower sensitivity than GnRH-1
B1	10 fold lower sensitivity than GnRH-1

Biological target: bfGnRHR-1 (bullfrog)
Assay: cell-based or functional assay
Remark: another data set of the same source

Binder	Log EC50, inositol phosphate production in GH3 cells expressing the receptor
B3	-9.41 log EC50 (concentration unit not printed)
B4	-9.4 log EC50 (concentration unit not printed)
B1	-9.91 log EC50 (concentration unit not printed)
B2	-8.52 log EC50 (concentration unit not printed)

Biological target: bfGnRHR-2 (bullfrog)
Assay: cell-based or functional assay
Remark: another data set of the same source

Binder	Log EC50, inositol phosphate production in GH3 cells expressing the receptor
B3	-8.98 log EC50 (concentration unit not printed)
B4	-9.21 log EC50 (concentration unit not printed)
B1	-9.91 log EC50 (concentration unit not printed)
B2	-5.59 log EC50 (concentration unit not printed)

The binders below were run against bfGnRHR-3 (bullfrog) (assay: cell-based or functional assay).

Binder	Log EC50, inositol phosphate production in GH3 cells expressing the receptor
B3	-9.51 log EC50 (concentration unit not printed)
B4	-9.22 log EC50 (concentration unit not printed)
B1	-9.89 log EC50 (concentration unit not printed)
B2	-8.42 log EC50 (concentration unit not printed)

Biological target: T1, rat GnRHR
Assay: cell-based or functional assay
Remark: another data set of the same source

Binder	Log EC50, inositol phosphate production in GH3 cells expressing the receptor
B3	-8.06 log EC50 (concentration unit not printed)
B4	-7.92 log EC50 (concentration unit not printed)
B1	-8.49 log EC50 (concentration unit not printed)

These binders were tested against T2, Primate GnRH-2 receptor (Primate (from a CV-1 cell genome)) (assay: cell-based or functional assay).

Binder	Emax (fold-induction), luciferase activation	Ratio^a (EC50 relative to the EC50 of GnRH-2), luciferase activation
B5	9.04 fold-induction	2.51 ratio to GnRH-2
B6	6.22 fold-induction	11 ratio to GnRH-2
B3	11.7 fold-induction	1 ratio to GnRH-2
B4	11.2 fold-induction	1.2 ratio to GnRH-2
B7	12.8 fold-induction	6.61 ratio to GnRH-2
B8	11.7 fold-induction	0.66 ratio to GnRH-2
B9	7.35 fold-induction	3.01 ratio to GnRH-2
B1	11.8 fold-induction	0.38 ratio to GnRH-2

Biological target: bfGnRHR-2 (bullfrog)
Assay: cell-based or functional assay
Remark: another data set of the same source

Binder	Log IC50, inhibition of GnRH-2-induced inositol phosphate production in GH3 cells expressing the receptor
Ac-[d2Nal][dPhe(4-Cl)][d3Pal]SY[dCit]WYP[dA]-NH2 [Trptorelix-1]	-8.1 log IC50 (concentration unit not printed)
Ac-[d2Nal][dPhe(4-Cl)][d3Pal]SY[dCit]LRP[dA]-NH2 [Cetrorelix]	-6.43 log IC50 (concentration unit not printed)

Biological target: T2, Primate GnRH-2 receptor
Assay: cell-based or functional assay
Remark: another data set of the same source

Binder	Log IC50, inhibition of GnRH-2-induced c-fos-luc luciferase activity
Ac-[d2Nal][dPhe(4-Cl)][d3Pal]SY[dCit]WYP[dA]-NH2 [Trptorelix-1]	-5.74 log IC50 (concentration unit not printed)
B10	-6.19 log IC50 (concentration unit not printed)

The binders below were run against T3, bfGnRHR-3 (bullfrog) (assay: displacement of I^125-GnRH-2 from membranes of GH3 cells expressing bfGnRHR-3).
T3 construct: whole, on cells; also called bullfrog GnRH receptor 3; bfGnRH receptor
Experimental: (§1) After 48 hours, the cells were homogenized to obtain cellular membranes, which were then dissolved in binding buffer (40 mM Tris, pH 7.4, 2 mM MgCl₂).

Binder	log IC50
B3	-8.63 log IC50 (concentration unit not printed)
B4	-8.1 log IC50 (concentration unit not printed)
B1	-9.83 log IC50 (concentration unit not printed)
B2	-7.32 log IC50 (concentration unit not printed)

What follows are binders tested against T1, rat GnRHR (assay: displacement of I^125-GnRH-2 from membranes of GH3 cells expressing rat GnRHR).
Experimental: as §1

Binder	log IC50
B3	-6.08 log IC50 (concentration unit not printed)
B4	-7.01 log IC50 (concentration unit not printed)
B1	-6.85 log IC50 (concentration unit not printed)
